The labels stand for the following.
B1: CE115HA000/GLS3000 P95S (antibody, IgG1, name in Kabat numbering, V domains shown)
VH: QVQLVESGGGVVQPGRSLRLSCAASGFTFSNAWMHWVRQAPGKGLEWVAQIKAKSNNYATYYAESVKGRFTISRDDSKNSLYLQMNSLKTEDTAVYYCRYVHYGAYYGVDAWGQGTTVTVSS
VL: DIVMTQSPLSLPVTPGEPASISCRSSQSLVHSNRNTYLHWYQQKPGQAPRLLIYKVSNRFSGVPDRFSGSGSGTDFTLKISRVEAEDVGVYYCGQGTQVSYTFGQGTKLEIK
notes: one-arm IgG1
B2: CE115HA000/GLS3000 Q90P (antibody, IgG1, name in Kabat numbering, V domains shown)
VH: QVQLVESGGGVVQPGRSLRLSCAASGFTFSNAWMHWVRQAPGKGLEWVAQIKAKSNNYATYYAESVKGRFTISRDDSKNSLYLQMNSLKTEDTAVYYCRYVHYGAYYGVDAWGQGTTVTVSS
VL: DIVMTQSPLSLPVTPGEPASISCRSSQSLVHSNRNTYLHWYQQKPGQAPRLLIYKVSNRFSGVPDRFSGSGSGTDFTLKISRVEAEDVGVYYCGPGTQVPYTFGQGTKLEIK
notes: one-arm IgG1
B3: CE115HA000/GLS3000 Q27L (antibody, IgG1, name in Kabat numbering, V domains shown)
VH: QVQLVESGGGVVQPGRSLRLSCAASGFTFSNAWMHWVRQAPGKGLEWVAQIKAKSNNYATYYAESVKGRFTISRDDSKNSLYLQMNSLKTEDTAVYYCRYVHYGAYYGVDAWGQGTTVTVSS
VL: DIVMTQSPLSLPVTPGEPASISCRSSLSLVHSNRNTYLHWYQQKPGQAPRLLIYKVSNRFSGVPDRFSGSGSGTDFTLKISRVEAEDVGVYYCGQGTQVPYTFGQGTKLEIK
notes: one-arm IgG1
B4: CE115HA000/GLS3000 R24A (antibody, IgG1, name in Kabat numbering, V domains shown)
VH: QVQLVESGGGVVQPGRSLRLSCAASGFTFSNAWMHWVRQAPGKGLEWVAQIKAKSNNYATYYAESVKGRFTISRDDSKNSLYLQMNSLKTEDTAVYYCRYVHYGAYYGVDAWGQGTTVTVSS
VL: DIVMTQSPLSLPVTPGEPASISCASSQSLVHSNRNTYLHWYQQKPGQAPRLLIYKVSNRFSGVPDRFSGSGSGTDFTLKISRVEAEDVGVYYCGQGTQVPYTFGQGTKLEIK
notes: one-arm IgG1
B5: CE115HA000/GLS3000 Q93S (antibody, IgG1, name in Kabat numbering, V domains shown)
VH: QVQLVESGGGVVQPGRSLRLSCAASGFTFSNAWMHWVRQAPGKGLEWVAQIKAKSNNYATYYAESVKGRFTISRDDSKNSLYLQMNSLKTEDTAVYYCRYVHYGAYYGVDAWGQGTTVTVSS
VL: DIVMTQSPLSLPVTPGEPASISCRSSQSLVHSNRNTYLHWYQQKPGQAPRLLIYKVSNRFSGVPDRFSGSGSGTDFTLKISRVEAEDVGVYYCGQGTSVPYTFGQGTKLEIK
notes: one-arm IgG1
B6: CE115HA000/GLS3000 Q90Y (antibody, IgG1, name in Kabat numbering, V domains shown)
VH: QVQLVESGGGVVQPGRSLRLSCAASGFTFSNAWMHWVRQAPGKGLEWVAQIKAKSNNYATYYAESVKGRFTISRDDSKNSLYLQMNSLKTEDTAVYYCRYVHYGAYYGVDAWGQGTTVTVSS
VL: DIVMTQSPLSLPVTPGEPASISCRSSQSLVHSNRNTYLHWYQQKPGQAPRLLIYKVSNRFSGVPDRFSGSGSGTDFTLKISRVEAEDVGVYYCGYGTQVPYTFGQGTKLEIK
notes: one-arm IgG1
B7: CE115HA000/GLS3000 Q93Y (antibody, IgG1, name in Kabat numbering, V domains shown)
VH: QVQLVESGGGVVQPGRSLRLSCAASGFTFSNAWMHWVRQAPGKGLEWVAQIKAKSNNYATYYAESVKGRFTISRDDSKNSLYLQMNSLKTEDTAVYYCRYVHYGAYYGVDAWGQGTTVTVSS
VL: DIVMTQSPLSLPVTPGEPASISCRSSQSLVHSNRNTYLHWYQQKPGQAPRLLIYKVSNRFSGVPDRFSGSGSGTDFTLKISRVEAEDVGVYYCGQGTYVPYTFGQGTKLEIK
notes: one-arm IgG1
B8: CE115HA000/GLS3000 Q27R (antibody, IgG1, name in Kabat numbering, V domains shown)
VH: QVQLVESGGGVVQPGRSLRLSCAASGFTFSNAWMHWVRQAPGKGLEWVAQIKAKSNNYATYYAESVKGRFTISRDDSKNSLYLQMNSLKTEDTAVYYCRYVHYGAYYGVDAWGQGTTVTVSS
VL: DIVMTQSPLSLPVTPGEPASISCRSSRSLVHSNRNTYLHWYQQKPGQAPRLLIYKVSNRFSGVPDRFSGSGSGTDFTLKISRVEAEDVGVYYCGQGTQVPYTFGQGTKLEIK
notes: one-arm IgG1
B9: CE115HA000/GLS3000 Q27P (antibody, IgG1, name in Kabat numbering, V domains shown)
VH: QVQLVESGGGVVQPGRSLRLSCAASGFTFSNAWMHWVRQAPGKGLEWVAQIKAKSNNYATYYAESVKGRFTISRDDSKNSLYLQMNSLKTEDTAVYYCRYVHYGAYYGVDAWGQGTTVTVSS
VL: DIVMTQSPLSLPVTPGEPASISCRSSPSLVHSNRNTYLHWYQQKPGQAPRLLIYKVSNRFSGVPDRFSGSGSGTDFTLKISRVEAEDVGVYYCGQGTQVPYTFGQGTKLEIK
notes: one-arm IgG1
B10: CE115HA000/GLS3000 Q93E (antibody, IgG1, name in Kabat numbering, V domains shown)
VH: QVQLVESGGGVVQPGRSLRLSCAASGFTFSNAWMHWVRQAPGKGLEWVAQIKAKSNNYATYYAESVKGRFTISRDDSKNSLYLQMNSLKTEDTAVYYCRYVHYGAYYGVDAWGQGTTVTVSS
VL: DIVMTQSPLSLPVTPGEPASISCRSSQSLVHSNRNTYLHWYQQKPGQAPRLLIYKVSNRFSGVPDRFSGSGSGTDFTLKISRVEAEDVGVYYCGQGTEVPYTFGQGTKLEIK
notes: one-arm IgG1
B11: CE115HA000/GLS3000 Q90S (antibody, IgG1, name in Kabat numbering, V domains shown)
VH: QVQLVESGGGVVQPGRSLRLSCAASGFTFSNAWMHWVRQAPGKGLEWVAQIKAKSNNYATYYAESVKGRFTISRDDSKNSLYLQMNSLKTEDTAVYYCRYVHYGAYYGVDAWGQGTTVTVSS
VL: DIVMTQSPLSLPVTPGEPASISCRSSQSLVHSNRNTYLHWYQQKPGQAPRLLIYKVSNRFSGVPDRFSGSGSGTDFTLKISRVEAEDVGVYYCGSGTQVPYTFGQGTKLEIK
notes: one-arm IgG1
B12: CE115HA000/GLS3000 Q90E (antibody, IgG1, name in Kabat numbering, V domains shown)
VH: QVQLVESGGGVVQPGRSLRLSCAASGFTFSNAWMHWVRQAPGKGLEWVAQIKAKSNNYATYYAESVKGRFTISRDDSKNSLYLQMNSLKTEDTAVYYCRYVHYGAYYGVDAWGQGTTVTVSS
VL: DIVMTQSPLSLPVTPGEPASISCRSSQSLVHSNRNTYLHWYQQKPGQAPRLLIYKVSNRFSGVPDRFSGSGSGTDFTLKISRVEAEDVGVYYCGEGTQVPYTFGQGTKLEIK
notes: one-arm IgG1
B13: CE115HA000/GLS3000 Q90A (antibody, IgG1, name in Kabat numbering, V domains shown)
VH: QVQLVESGGGVVQPGRSLRLSCAASGFTFSNAWMHWVRQAPGKGLEWVAQIKAKSNNYATYYAESVKGRFTISRDDSKNSLYLQMNSLKTEDTAVYYCRYVHYGAYYGVDAWGQGTTVTVSS
VL: DIVMTQSPLSLPVTPGEPASISCRSSQSLVHSNRNTYLHWYQQKPGQAPRLLIYKVSNRFSGVPDRFSGSGSGTDFTLKISRVEAEDVGVYYCGAGTQVPYTFGQGTKLEIK
notes: one-arm IgG1
B14: CE115HA000/GLS3000 Q93D (antibody, IgG1, name in Kabat numbering, V domains shown)
VH: QVQLVESGGGVVQPGRSLRLSCAASGFTFSNAWMHWVRQAPGKGLEWVAQIKAKSNNYATYYAESVKGRFTISRDDSKNSLYLQMNSLKTEDTAVYYCRYVHYGAYYGVDAWGQGTTVTVSS
VL: DIVMTQSPLSLPVTPGEPASISCRSSQSLVHSNRNTYLHWYQQKPGQAPRLLIYKVSNRFSGVPDRFSGSGSGTDFTLKISRVEAEDVGVYYCGQGTDVPYTFGQGTKLEIK
notes: one-arm IgG1
B15: CE115HA000/GLS3000 Q93P (antibody, IgG1, name in Kabat numbering, V domains shown)
VH: QVQLVESGGGVVQPGRSLRLSCAASGFTFSNAWMHWVRQAPGKGLEWVAQIKAKSNNYATYYAESVKGRFTISRDDSKNSLYLQMNSLKTEDTAVYYCRYVHYGAYYGVDAWGQGTTVTVSS
VL: DIVMTQSPLSLPVTPGEPASISCRSSQSLVHSNRNTYLHWYQQKPGQAPRLLIYKVSNRFSGVPDRFSGSGSGTDFTLKISRVEAEDVGVYYCGQGTPVPYTFGQGTKLEIK
notes: one-arm IgG1
B16: CE115HA000/GLS3000 Q93R (antibody, IgG1, name in Kabat numbering, V domains shown)
VH: QVQLVESGGGVVQPGRSLRLSCAASGFTFSNAWMHWVRQAPGKGLEWVAQIKAKSNNYATYYAESVKGRFTISRDDSKNSLYLQMNSLKTEDTAVYYCRYVHYGAYYGVDAWGQGTTVTVSS
VL: DIVMTQSPLSLPVTPGEPASISCRSSQSLVHSNRNTYLHWYQQKPGQAPRLLIYKVSNRFSGVPDRFSGSGSGTDFTLKISRVEAEDVGVYYCGQGTRVPYTFGQGTKLEIK
notes: one-arm IgG1
B17: CE115HA000/GLS3000 Q90D (antibody, IgG1, name in Kabat numbering, V domains shown)
VH: QVQLVESGGGVVQPGRSLRLSCAASGFTFSNAWMHWVRQAPGKGLEWVAQIKAKSNNYATYYAESVKGRFTISRDDSKNSLYLQMNSLKTEDTAVYYCRYVHYGAYYGVDAWGQGTTVTVSS
VL: DIVMTQSPLSLPVTPGEPASISCRSSQSLVHSNRNTYLHWYQQKPGQAPRLLIYKVSNRFSGVPDRFSGSGSGTDFTLKISRVEAEDVGVYYCGDGTQVPYTFGQGTKLEIK
notes: one-arm IgG1
B18: CE115HA000/GLS3000 Q27D (antibody, IgG1, name in Kabat numbering, V domains shown)
VH: QVQLVESGGGVVQPGRSLRLSCAASGFTFSNAWMHWVRQAPGKGLEWVAQIKAKSNNYATYYAESVKGRFTISRDDSKNSLYLQMNSLKTEDTAVYYCRYVHYGAYYGVDAWGQGTTVTVSS
VL: DIVMTQSPLSLPVTPGEPASISCRSSDSLVHSNRNTYLHWYQQKPGQAPRLLIYKVSNRFSGVPDRFSGSGSGTDFTLKISRVEAEDVGVYYCGQGTQVPYTFGQGTKLEIK
notes: one-arm IgG1
B19: CE115HA000/GLS3000 Q93A (antibody, IgG1, name in Kabat numbering, V domains shown)
VH: QVQLVESGGGVVQPGRSLRLSCAASGFTFSNAWMHWVRQAPGKGLEWVAQIKAKSNNYATYYAESVKGRFTISRDDSKNSLYLQMNSLKTEDTAVYYCRYVHYGAYYGVDAWGQGTTVTVSS
VL: DIVMTQSPLSLPVTPGEPASISCRSSQSLVHSNRNTYLHWYQQKPGQAPRLLIYKVSNRFSGVPDRFSGSGSGTDFTLKISRVEAEDVGVYYCGQGTAVPYTFGQGTKLEIK
notes: one-arm IgG1
B20: CE115HA000/GLS3000 Q27E (antibody, IgG1, name in Kabat numbering, V domains shown)
VH: QVQLVESGGGVVQPGRSLRLSCAASGFTFSNAWMHWVRQAPGKGLEWVAQIKAKSNNYATYYAESVKGRFTISRDDSKNSLYLQMNSLKTEDTAVYYCRYVHYGAYYGVDAWGQGTTVTVSS
VL: DIVMTQSPLSLPVTPGEPASISCRSSESLVHSNRNTYLHWYQQKPGQAPRLLIYKVSNRFSGVPDRFSGSGSGTDFTLKISRVEAEDVGVYYCGQGTQVPYTFGQGTKLEIK
notes: one-arm IgG1
B21: CE115HA000/GLS3000 R24D (antibody, IgG1, name in Kabat numbering, V domains shown)
VH: QVQLVESGGGVVQPGRSLRLSCAASGFTFSNAWMHWVRQAPGKGLEWVAQIKAKSNNYATYYAESVKGRFTISRDDSKNSLYLQMNSLKTEDTAVYYCRYVHYGAYYGVDAWGQGTTVTVSS
VL: DIVMTQSPLSLPVTPGEPASISCDSSQSLVHSNRNTYLHWYQQKPGQAPRLLIYKVSNRFSGVPDRFSGSGSGTDFTLKISRVEAEDVGVYYCGQGTQVPYTFGQGTKLEIK
notes: one-arm IgG1

The values below come from US20210388087A1 (Chugai, published 2021).

T1 sequence (P07766 23-126): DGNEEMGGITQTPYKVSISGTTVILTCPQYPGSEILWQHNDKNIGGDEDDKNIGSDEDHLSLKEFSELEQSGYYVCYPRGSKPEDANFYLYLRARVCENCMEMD

This experiment has as its target T1, CD3 epsilon homodimer protein (UniProt P07766 23-126).
T1 construct: also called CD3 (CD3 epsilon)
Description: SPR, antibody over immobilised CD3e homodimer.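 Also: SPR at 25 °C with CD3 epsilon homodimer amine-coupled to a CM4 sensor chip and antibody flowed over as analyte in HBS-EP+ running buffer.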
Description: An appropriate amount of CD3 epsilon homodimer protein was immobilized onto Sensor chip CM4 (GE Healthcare Japan Corp.) by the amine coupling method. Then, the antibody having an appropriate concentration was injected thereto as an analyte and allowed to interact with the CD3 epsilon homodimer protein on the sensor chip. Then, the sensor chip was regenerated by the injection of 10 mmol/L glycine-HCl (pH 1.5). The assay was conducted at 25 degrees C., and HBS-EP+(GE Healthcare Japan Corp.) was used as a running buffer. […] Each parameter was calculated using Biacore T200 Evaluation Software (GE Healthcare Japan Corp.).
As to B1, the “KD ratio to GLS3000” value amounted to 1.19.
The result for B2 reads 15.9; that for B3, 0.86.
The result for B4 reads 1; that for B5, 0.75; that for B6, 38.3.
The result for B7 reads 0.76.
For B8, the “KD ratio to GLS3000” value came to 1.06.
The result for B9 reads 2.16; that for B10, 1.05; that for B11, 0.96.
For B12 the value was 0.91; for B13, 0.89; for B14, 0.72.
The result for B15 reads 39.5; that for B16, 0.79; that for B17, 11.1.
On to B18, for which the “KD ratio to GLS3000” value came out at 0.89.
The result for B19 reads 0.65; that for B20, 0.99.
Consider B21, for which the “KD ratio to GLS3000” value amounted to 0.83.
